# Test results published in patent US20090149339A1 (published 2009).
# Ends that are not written are not given here. * marks the point of attachment. Biotin = O=C1N[C@H]2[C@H](CS[C@H]2CCCCC(=O)*)N1
# B1: CC CKR-4 C-terminal PL peptide AA44L, biotinylated (peptide)
# peptide: Biotin-DTPSSSYTQSTMDHDLHDAL
# B2: CD62E C-terminal PL peptide AA48L, biotinylated (peptide)
# peptide: Biotin-SSSQSLESDGSYQKPSYIL
# B3: FasLigand C-terminal PL peptide AA23L-M, biotinylated (peptide)
# peptide: Biotin-SSKSKSSEESQTFFGLYKL
# B4: CC CKR-1R C-terminal PL peptide AA41L, biotinylated (peptide)
# peptide: Biotin-LERVSSTSPSTGEHELSAGF
# B5: FceRIb C-terminal PL peptide AA25L, biotinylated (peptide)
# peptide: Biotin-YSATYSELEDPGEMSPPIDL
# notes: also called Fc epsilon receptor beta I chain
# Biological target: GST-NOS1 PDZ domain fusion protein (human neuronal nitric oxide synthase; PDZ domain 1 of 1) (human, UniProt P08515 1-218 = GST)
# Sequence (P08515 1-218, tags or fused parts left off): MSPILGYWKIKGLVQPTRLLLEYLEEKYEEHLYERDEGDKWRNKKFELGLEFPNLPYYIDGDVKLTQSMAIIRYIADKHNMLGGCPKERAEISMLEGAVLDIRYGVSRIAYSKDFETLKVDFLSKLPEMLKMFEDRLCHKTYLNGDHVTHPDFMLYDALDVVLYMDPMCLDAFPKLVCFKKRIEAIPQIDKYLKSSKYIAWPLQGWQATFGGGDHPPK
# Assay: A/G assays
row,Binder,binding result
1,B1,no binding
2,B2,no binding
3,B3,no binding
4,B4,no binding
5,B5,no binding

# Biological target: T1, GST-NeDLG PDZ domain fusion protein (presynaptic protein sao102, neuroendocrine-dlg; PDZ domains 1-2 of 3) (UniProt P08515 1-218 = GST)
# T1 construct: also called NeDLG1
# T1 sequence (P08515 1-218, tags or fused parts left off): as above
# Assay: A/G assays
row,Binder,binding result
1,B1,no binding
2,B2,no binding
3,B3,no binding
4,B4,no binding
5,B5,no binding

# Biological target: T2, GST-TAX2 PDZ domain fusion protein (human tax interaction protein 2 AA54-140; PDZ domain 1 of 1) (human, UniProt P08515 1-218 = GST)
# T2 construct: also called TX 2
# T2 sequence (P08515 1-218, tags or fused parts left off): as above
# Assay: A/G assays
row,Binder,binding result
1,B1,no binding
2,B2,no binding
3,B3,no binding
4,B4,no binding
5,B5,no binding

# Biological target: GST-TIAM1 PDZ domain fusion protein (T-lymphoma invasion and metastasis inducing protein 1 AA1001-1088); PDZ 1 … (UniProt P08515 1-218 = GST)
# Sequence (P08515 1-218, tags or fused parts left off): as above
# Assay: A/G assays
row,Binder,binding result
1,B1,no binding
2,B2,no binding
3,B3,no binding
4,B4,no binding
5,B5,no binding

# Biological target: GST-PTN-4 PDZ domain fusion protein (protein-tyrosine phosphatase meg1 AA774-862; PDZ domain 1 of 1) (UniProt P08515 1-218 = GST)
# Sequence (P08515 1-218, tags or fused parts left off): as above
# Assay: A/G assays
row,Binder,binding result
1,B1,no binding
2,B2,no binding
3,B3,no binding
4,B4,no binding
5,B5,no binding

# Biological target: T3, GST-CBP PDZ domain fusion protein (Cytohesin binding protein HE AA85-175; PDZ domain 1 of 1) (UniProt P08515 1-218 = GST)
# T3 construct: also called Prot
# T3 sequence (P08515 1-218, tags or fused parts left off): as above
# Assay: A/G assays
row,Binder,binding result
1,B1,no binding
2,B2,no binding
3,B3,no binding
4,B4,no binding
5,B5,no binding

# Biological target: GST-MINT3 PDZ domain fusion protein (human MINT3 AA11-52; PDZ domain 1 of 1) (human, UniProt P08515 1-218 = GST)
# Sequence (P08515 1-218, tags or fused parts left off): as above
# Assay: A/G assays
row,Binder,binding result
1,B1,no binding
2,B2,no binding
3,B3,no binding
4,B4,no binding
5,B5,no binding

# Biological target: T4, GST-KIAA0303 PDZ domain fusion protein (KIAA0303 AA652-742; PDZ domain 1 of 1) (UniProt P08515 1-218 = GST)
# T4 construct: also called K303
# T4 sequence (P08515 1-218, tags or fused parts left off): as above
# Assay: A/G assays
row,Binder,binding result
1,B1,no binding
2,B2,no binding
3,B3,no binding
4,B4,no binding
5,B5,no binding

# Biological target: T5, GST-TAX43 PDZ domain fusion protein (human tax interaction protein 43 AA15-85; PDZ domain 1 of 1) (human, UniProt P08515 1-218 = GST)
# T5 construct: also called TX 43
# T5 sequence (P08515 1-218, tags or fused parts left off): as above
# Assay: A/G assays
row,Binder,binding result
1,B1,no binding
2,B2,no binding
3,B3,no binding
4,B4,no binding
5,B5,no binding

# Biological target: T6, GST-41.8 kD PDZ domain fusion protein (hypothetical 41.8 kD protein AA4-85; PDZ domain 1 of 1) (UniProt P08515 1-218 = GST)
# T6 construct: also called hypoth
# Assay: A/G assays
row,Binder,binding result
1,B1,no binding
2,B2,no binding
3,B3,no binding
4,B4,no binding
5,B5,no binding

# Biological target: T7, GST-CASK PDZ domain fusion protein (CASK AA495-584; PDZ domain 1 of 1) (mouse, UniProt P08515 1-218 = GST)
# T7 construct: also called mCASK
# T7 sequence (P08515 1-218, tags or fused parts left off): as above
# Assay: A/G assays
row,Binder,binding result
1,B1,no binding
2,B2,no binding
3,B3,no binding
4,B4,no binding
5,B5,no binding

# Biological target: T8, GST-RGS12 PDZ domain fusion protein (human regulator of G-protein signalling 12 AA35-103; PDZ domain 1 of 1) (human, UniProt P08515 1-218 = GST)
# T8 construct: also called RSG12
# T8 sequence (P08515 1-218, tags or fused parts left off): as above
# Assay: A/G assays
row,Binder,binding result
1,B1,no binding
2,B2,no binding
3,B3,no binding
4,B4,no binding
5,B5,no binding

# Biological target: GST-MPP1 PDZ domain fusion protein (55 Kd erythrocyte membrane protein AA101-186; PDZ domain 1 of 1) (UniProt P08515 1-218 = GST)
# Sequence (P08515 1-218, tags or fused parts left off): as above
# Assay: A/G assays
row,Binder,binding result
1,B1,no binding
2,B2,no binding
3,B3,no binding
4,B4,no binding
5,B5,no binding

# Biological target: T9, GST-KIAA0316 PDZ domain fusion protein (KIAA0316 AA197-284; PDZ domain 1 of 1) (UniProt P08515 1-218 = GST)
# T9 construct: also called K316
# T9 sequence (P08515 1-218, tags or fused parts left off): as above
# Assay: A/G assays
row,Binder,binding result
1,B1,no binding
2,B2,no binding
3,B3,no binding
4,B4,no binding
5,B5,no binding

# Biological target: GST-prIL16 PDZ domain fusion protein (putative interleukin 16 precursor AA170-383; PDZ domains 1-2 of 2) (UniProt P08515 1-218 = GST)
# Sequence (P08515 1-218, tags or fused parts left off): as above
# Assay: A/G assays
row,Binder,binding result
1,B1,no binding
2,B2,no binding
3,B3,no binding
4,B4,no binding
5,B5,no binding

# Biological target: GST-LIM PDZ domain fusion protein (Human LIM protein AA29-112; PDZ domain 1 of 1) (human, UniProt P08515 1-218 = GST)
# Sequence (P08515 1-218, tags or fused parts left off): as above
# Assay: A/G assays
row,Binder,binding result
1,B1,no binding
2,B2,no binding
3,B3,no binding
4,B4,no binding
5,B5,no binding

# Biological target: GST-LIMK2 PDZ domain fusion protein (human LIM domain kinase 2 AA185-275; PDZ domain 1 of 1) (human, UniProt P08515 1-218 = GST)
# Sequence (P08515 1-218, tags or fused parts left off): as above
# Assay: A/G assays
row,Binder,binding result
1,B1,no binding
2,B2,no binding
3,B3,no binding
4,B4,no binding
5,B5,no binding

# Biological target: GST-PSD95 PDZ domain fusion protein (human post-synaptic density protein 95 AA387-724; PDZ domains 1-3 of 3) (human, UniProt P08515 1-218 = GST)
# Sequence (P08515 1-218, tags or fused parts left off): as above
# Assay: A/G assays
row,Binder,binding result
1,B1,no binding
2,B2,no binding
3,B3,no binding
4,B4,no binding
5,B5,no binding

# Biological target: GST-AF6 PDZ domain fusion protein (af-6 protein AA985-1077; PDZ domain 1 of 1) (UniProt P08515 1-218 = GST)
# Sequence (P08515 1-218, tags or fused parts left off): as above
# Assay: A/G assays
row,Binder,binding result
1,B1,no binding
2,B2,no binding
3,B3,no binding
4,B4,no binding
5,B5,no binding

# Biological target: T10, GST-TAX33 PDZ domain fusion protein (tax interaction protein 33 AA73-162; PDZ domain 1 of 1) (UniProt P08515 1-218 = GST)
# T10 construct: also called TX33
# T10 sequence (P08515 1-218, tags or fused parts left off): as above
# Assay: A/G assays
row,Binder,binding result
1,B1,no binding
2,B2,no binding
3,B3,no binding
4,B4,no binding
5,B5,no binding

# Biological target: T11, GST-KIAA0559 PDZ domain fusion protein (KIAA0559 AA766-870; PDZ1 of 1) (UniProt P08515 1-218 = GST)
# T11 construct: also called K559
# Assay: A/G assays
row,Binder,binding result
1,B1,no binding
2,B2,no binding
3,B3,no binding
4,B4,no binding
5,B5,no binding

# Biological target: T12, GST-MPP2 PDZ domain fusion protein (maguk p55 subfamily member 2 (DLG2) AA185-273; PDZ domain 1 of 1) (UniProt P08515 1-218 = GST)
# T12 construct: also called MMP2
# Assay: A/G assays
row,Binder,binding result
1,B1,no binding
2,B2,no binding
3,B3,no binding
4,B4,no binding
5,B5,no binding

# Biological target: T13, GST-SYN1a PDZ domain fusion protein (alpha1-syntrophin AA96-189; PDZ domain 1 of 1) (UniProt P08515 1-218 = GST)
# T13 construct: also called SYN 1 alpha; SYNTR 1 alpha
# T13 sequence (P08515 1-218, tags or fused parts left off): as above
# Assay: A/G assays
row,Binder,binding result
1,B1,no binding
2,B2,no binding
3,B3,no binding
4,B4,no binding
5,B5,no binding

# Biological target: GST-DVL1 PDZ domain fusion protein (human dishevelled segment polarity protein homolog AA248-340); PDZ domain … (human, UniProt P08515 1-218 = GST)
# Assay: A/G assays
row,Binder,binding result
1,B1,no binding
2,B2,no binding
3,B3,no binding
4,B4,no binding
5,B5,no binding

# Biological target: T14, GST-TAX40 PDZ domain fusion protein (human tax interaction protein 40 AA35-137; PDZ domain 1 of 1) (human, UniProt P08515 1-218 = GST)
# T14 construct: also called TX 40
# T14 sequence (P08515 1-218, tags or fused parts left off): as above
# Assay: A/G assays
row,Binder,binding result
1,B1,no binding
2,B2,no binding
3,B3,no binding
4,B4,no binding
5,B5,no binding
